From US20030215880A1 (Scripps Research, published 2003)

B1: Fab D13 (Fab, V domains shown)
VH: VQLLEQSGAELVKPGASVKLSCTTSGLNIEDYYIHWVKQRPEQGLEWIGRIDPENGETLYAPEFQGKATITADTSSNTVYLQLRSLTSEDTAIYYCGRFDGNGWYLDVWGAGTTVTVSS
VL: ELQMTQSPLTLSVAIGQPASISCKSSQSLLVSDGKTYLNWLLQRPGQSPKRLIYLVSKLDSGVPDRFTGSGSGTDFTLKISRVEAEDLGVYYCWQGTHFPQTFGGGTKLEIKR
B2: Fab b12 (Fab, V domains shown)
VH: QVQLVQSGAEVKKPGASVKVSCQASGYRFSNFVIHWVRQAPGQRFEWMGWINPYNGNKEFSAKFQDRVTFTADTSANTAYMELRSLRSADTAVYYCARVGPYSWDDSPQDNYYMDVWGKGTTVIVSS
VL: EIVLTQSPGTLSLSPGERATFSCRSSHSIRSRRVAWYQHKPGQAPRLVIHGVSNRASGISDRFSGSGSGTDFTLTITRVEPEDFALYYCQVYGASSYTFGQGTKLERKR
B3: IgG1 b12 (antibody, V domains shown)
VH: B2 VH
VL: B2 VL
notes: Human IgG1

Legend:
[1] = target: T1, PrP^c, cellular isoform of the mouse prion protein (mouse, UniProt P04925 23-230); assay: immunoprecipitation from normal mouse brain homogenate, positive control
[2] = target: T1, PrP^c, cellular isoform of the mouse …; assay: immunoprecipitation from normal mouse brain homogenate, western blot

T1 sequence (P04925 23-230 limits assumed): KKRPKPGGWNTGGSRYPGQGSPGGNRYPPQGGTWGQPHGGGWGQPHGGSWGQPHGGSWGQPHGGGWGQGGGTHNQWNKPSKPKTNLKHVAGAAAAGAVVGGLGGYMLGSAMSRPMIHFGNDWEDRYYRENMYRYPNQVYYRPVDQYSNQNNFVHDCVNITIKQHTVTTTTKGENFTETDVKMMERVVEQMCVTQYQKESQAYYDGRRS

Row | Binder | binding result [1] | binding result [2]
1 | B1 | binds | –
2 | B2 | – | no binding
3 | B3 | – | no binding
